Experiment [1] deals with CD166 (activated leukocyte cell adhesion molecule, ALCAM) on human cells (human) (UniProt Q13740). Briefly: cell-based or functional assay.
The target is the same in experiment [2]. Briefly: flow cytometry, ILT3Fc-FITC on control-virus infected H9 cells.
For experiment [3] the target is unchanged. Briefly: flow cytometry, CD3-gated T cells of a healthy donor (low or no ILT3L).
The target is the same in experiment [4]. Briefly: flow cytometry, CD4-gated T helper cells of a healthy donor (low or no ILT3L).
Experiment [5] has the same target. Briefly: flow cytometry, ILT3Fc-FITC on H9 cells with CD166 knocked down by shRNA adeno-virus.
The target is the same in experiment [6]. Briefly: flow cytometry, Wild-Type H9 cells, double staining anti-CD166-PE + ILT3.Fc-FITC.
For experiment [7] the target is unchanged. Briefly: flow cytometry, CD3+ T cells, Control Treatment, cultured w/o ILT3Fc, stained with ILT3Fc-FITC.
For experiment [8] the target is unchanged. Briefly: flow cytometry, CD3+ T cells triggered with PWM (0.05ug/ml) w/o ILT3Fc, stained with ILT3Fc-FITC.
For experiment [9] the target is unchanged. Briefly: flow cytometry, CD3+ T cells triggered with CD3/CD28 (5ug/ml, 1ug/ml) w/o ILT3Fc, stained with ILT3Fc-FITC.
The target is the same in experiment [10]. Briefly: flow cytometry, CD3+ T cells, Control Treatment, cultured with ILT3Fc (50 ug/mL), stained with ILT3Fc-FITC.
Experiment [11] shares this target. Briefly: flow cytometry, Jurkat cells nucleofected with control vector, double staining anti-CD166 APC + ILT3Fc-FITC.
Experiment [12] shares this target. Briefly: flow cytometry, CD3+ T cells triggered with PWM (0.05ug/ml) in the presence of ILT3Fc (50 ug/mL), stained with ILT3Fc-FITC.
For experiment [13] the target is unchanged. Briefly: flow cytometry, Jurkat cells nucleofected with CD166 over-expression plasmid, double staining anti-CD166 APC + ILT3Fc-FITC.
For experiment [14] the target is unchanged. Briefly: flow cytometry, H9 cells infected with control adeno-virus (Adeno-Control) for 7 days, double staining anti-CD166 PE + ILT3Fc-FITC.
The target is the same in experiment [15]. Briefly: flow cytometry, CD3+ T cells triggered with CD3/CD28 (5ug/ml, 1ug/ml) in the presence of ILT3Fc (50 ug/mL), stained with ILT3Fc-FITC.
The target is the same in experiment [16]. Briefly: flow cytometry, CD166 KO H9 cells (CD166 gene knocked out: control cells without the target), double staining anti-CD166-PE + ILT3.Fc-FITC.
The target is the same in experiment [17]. Briefly: flow cytometry, H9 cells with CD166 knocked down by CD166 shRNA adeno-virus (Adeno-siCD166) for 7 days, double staining anti-CD166 PE + ILT3Fc-FITC.
Experiment [18] has the same target. Briefly: flow cytometry, Jurkat cells pre-incubated with J4-81, then ILT3Fc-FITC.
Experiment [19] shares this target. Briefly: flow cytometry, Jurkat cells pre-incubated with CD166-Fc, then ILT3Fc-FITC.
For experiment [20] the target is unchanged. Briefly: flow cytometry, Jurkat cells pre-incubated with CD6-Fc, then ILT3Fc-FITC.

From US20180207269A1 come the findings set out here.

With “ILT3Fc (water-soluble recombinant protein: extracellular domain of human ILT3 affixed to the Fc portion of an immunoglobulin) (from UniProt Q8NHJ6 22-259; P01857 104-330) (Fc fusion)”, in [1], the inhibition of growth of tumor cell lines at 72 hours fell in the range of 50 to 90%. In addition, the percent of cells binding ILT3Fc in experiment [2] was 46%; in [5], less than 20%. Besides, the values for the percent ILT3Fc binding in experiment [3] and in experiment [4] were 12% and 1%, respectively. The % cells in lower left quadrant (CD166- / ILT3Fc-FITC-) in experiment [6] turned out to be 3.57%; in [11], 30.6%; in [13], 13.4%; in experiment [14], 6.33%; in experiment [16], 96.5%; in [17], 50%. Besides, the % cells in lower right quadrant (CD166- / ILT3Fc-FITC+) was determined as 0.03% in [6]; 1.08% in experiment [11]; 1.08% in experiment [13]; 0.15% in experiment [14]; 2.94% in [16]; 5.8% in experiment [17]. Besides, the % cells in upper left quadrant (CD166+ / ILT3Fc-FITC-) amounted to 22.3% in experiment [6]; 58% in experiment [11]; 66.3% in experiment [13]; 47% in experiment [14]; 0.1% in [16]; 26.7% in [17]. Besides, the % cells in upper right quadrant (CD166+ / ILT3Fc-FITC+) was determined as 74.1% in experiment [6]; 10.2% in experiment [11]; 19.2% in experiment [13]; 46.5% in [14]; 0.43% in experiment [16]; 14.5% in [17]. The % cells stained with ILT3Fc-FITC was found to be 1.08% in [7]; 23.2% in experiment [8]; 26.9% in [9]; 0.8% in experiment [10]; 15.2% in experiment [12]; 20.4% in experiment [15].
In experiment [18], anti-CD166 mAb J4-81 (antibody) returned a percent inhibition of ILT3Fc-FITC binding of 28%.

B1: human CD166Fc (Fc fusion, UniProt Q13740 28-526, looked up, not shown: a dimerising Fc or GST)
chain: WYTVNSAYGDTIIIPCRLDVPQNLMFGKWKYEKPDGSPVFIAFRSSTKKSVQYDDVPEYKDRLNLSENYTLSISNARISDEKRFVCMLVTEDNVFEAPTIVKVFKQPSKPEIVSKALFLETEQLKKLGDCISEDSYPDGNITWYRNGKVLHPLEGAVVIIFKKEMDPVTQLYTMTSTLEYKTTKADIQMPFTCSVTYYGPSGQKTIHSEQAVFDIYYPTEQVTIQVLPPKNAIKEGDNITLKCLGNGNPPPEEFLFYLPGQPEGIRSSNTYTLTDVRRNATGDYKCSLIDKKSMIASTAITVHYLDLSLNPSGEVTRQIGDALPVSCTISASRNATVVWMKDNIRLRSSPSFSSLHYQDAGNYVCETALQEVEGLKKRESLTLIVEGKPQIKMTKKTDPSGLSKTIICHVEGFPKPAIQWTITGSGSVINQTEESPYINGRYYSKIIISPEENVTLTCTAENQLERTVNSLNVSAISIPEHDEADEISDENREKVNDQA
Consider B1, for which the percent inhibition of ILT3Fc-FITC binding in experiment [19] was determined as 30%.

B2: human CD6-Fc (Fc fusion, UniProt P30203 25-398, looked up, not shown: a dimerising Fc or GST)
chain: DQLNTSSAESELWEPGERLPVRLTNGSSSCSGTVEVRLEASWEPACGALWDSRAAEAVCRALGCGGAEAASQLAPPTPELPPPPAAGNTSVAANATLAGAPALLCSGAEWRLCEVVEHACRSDGRRARVTCAENRALRLVDGGGACAGRVEMLEHGEWGSVCDDTWDLEDAHVVCRQLGCGWAVQALPGLHFTPGRGPIHRDQVNCSGAEAYLWDCPGLPGQHYCGHKEDAGAVCSEHQSWRLTGGADRCEGQVEVHFRGVWNTVCDSEWYPSEAKVLCQSLGCGTAVERPKGLPHSLSGRMYYSCNGEELTLSNCSWRFNNSNLCSQSLAARVLCSASRSLHNLSTPEVPASVQTVTIESSVTVKIENKESRE
B2 displayed a percent inhibition of ILT3Fc-FITC binding in [20] of 49%.
